Laboratory results: paper PMC12416549 (2024)
Residue numbers refer to the chain shown, from its start. Names may count otherwise.

T1: TNFR1 (Homo sapiens, UniProt P19438)
T1 chain: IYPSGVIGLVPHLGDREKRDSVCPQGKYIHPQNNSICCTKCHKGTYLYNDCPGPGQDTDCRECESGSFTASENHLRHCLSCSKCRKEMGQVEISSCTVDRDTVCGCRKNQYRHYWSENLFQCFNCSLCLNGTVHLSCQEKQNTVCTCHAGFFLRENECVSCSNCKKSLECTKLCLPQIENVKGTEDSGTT

B1: H78Y (designed binder)
chain: MTLQELLREEALRRAEAEAFRYALELLAEKFPEQKEYLLDLAEEIESQIRSLSGVDVEDVRKFLDKEWAWVKELLAEYPAELAEVEAARAARLAELRAEVEAKVAA
B2: W70F (designed binder)
chain: B1 chain with W70F, Y78H
B3: K103S (designed binder)
chain: B1 chain with Y78H, K103S
B4: D65C (designed binder)
chain: B1 chain with D65C, Y78H
B5: L12I (designed binder)
chain: B1 chain with L12I, Y78H
B6: M1C (designed binder)
chain: B1 chain with M1C, Y78H
B7: G54Y (designed binder)
chain: B1 chain with G54Y, Y78H
B8: L41M (designed binder)
chain: B1 chain with L41M, Y78H
B9: E77V (designed binder)
chain: B1 chain with E77V, Y78H
B10: S47N (designed binder)
chain: B1 chain with S47N, Y78H
B11: L6W (designed binder)
chain: B1 chain with L6W, Y78H
B12: R21F (designed binder)
chain: B1 chain with R21F, Y78H
B13: L96D (designed binder)
chain: B1 chain with Y78H, L96D
B14: P79H (designed binder)
chain: B1 chain with Y78H, P79H
B15: V100P (designed binder)
chain: B1 chain with Y78H, V100P
B16: E77W (designed binder)
chain: B1 chain with E77W, Y78H
B17: V57Y (designed binder)
chain: B1 chain with V57Y, Y78H
B18: V104R (designed binder)
chain: B1 chain with Y78H, V104R
B19: E99P (designed binder)
chain: B1 chain with Y78H, E99P
B20: E86Y (designed binder)
chain: B1 chain with Y78H, E86Y
B21: R13N (designed binder)
chain: B1 chain with R13N, Y78H
B22: K72I (designed binder)
chain: B1 chain with K72I, Y78H
B23: E77P (designed binder)
chain: B1 chain with E77P, Y78H
B24: A94G (designed binder)
chain: B1 chain with Y78H, A94G
B25: E16K (designed binder)
chain: B1 chain with E16K, Y78H
B26: E16D (designed binder)
chain: B1 chain with E16D, Y78H
B27: A106L (designed binder)
chain: B1 chain with Y78H, A106L
B28: F20L (designed binder)
chain: B1 chain with F20L, Y78H
B29: A11M (designed binder)
chain: B1 chain with A11M, Y78H
B30: E99G (designed binder)
chain: B1 chain with Y78H, E99G
B31: I49W (designed binder)
chain: B1 chain with I49W, Y78H
B32: A15R (designed binder)
chain: B1 chain with A15R, Y78H
B33: H78I (designed binder)
chain: B1 chain with Y78I
B34: T2S (designed binder)
chain: B1 chain with T2S, Y78H
B35: E25W (designed binder)
chain: B1 chain with E25W, Y78H
B36: A105T (designed binder)
chain: B1 chain with Y78H, A105T
B37: V71M (designed binder)
chain: B1 chain with V71M, Y78H
B38: R50D (designed binder)
chain: B1 chain with R50D, Y78H
B39: E86V (designed binder)
chain: B1 chain with Y78H, E86V
B40: L3T (designed binder)
chain: B1 chain with L3T, Y78H

Target: T1, TNFR1
Assay: yeast display SC50

Binder	apparent Kd (screen) [nM]
B1	0.653
B2	0.593
B3	0.539
B4	0.539
B5	0.539
B6	0.718
B7	2.73
B8	0.718
B9	0.593
B10	0.49
B11	3.99
B12	0.49
B13	0.539
B14	0.49
B15	0.593
B16	0.539
B17	0.49
B18	0.718
B19	1.16
B20	2.05

Binder	apparent Kd (screen) [nM]
B21	1.16
B22	0.539
B23	0.405
B24	0.539
B25	5.31
B26	1.05
B27	0.539
B28	0.593
B29	1.27
B30	0.539
B31	2.48
B32	0.718
B33	1.16
B34	0.653
B35	1.16
B36	0.869
B37	0.593
B38	0.49
B39	0.956
B40	4.83
